Experimental findings from patent US7494767B2, “Assay for TSG101 as inhibitors of HIV production” (priority 2001, dated 2009) are described below.

The subject of one assay is HIV-1 particles. The assay can be described thus: Release of HIV-1 virus-like particles from transfected COS-1 cells (Western blot of particles, anti-CA). The assay is classed as cell-based. Conditions: for amount of mature CA in released virus, of the control (0 μM pa) level: COS-1 cells with rev, pol and wild-type gag.
In another assay the test system is viral protein (Gag). The assay can be described thus: Intracellular steady-state level of viral proteins in COS-1 cells (S1 and P1 fractions, Western blot, anti-CA). The assay is classed as cell-based, HIV-1. As to conditions: for Gag Δp6 in S1 and P1 fractions: gagΔp6, same conditions; for viral protein in P1 fraction / viral protein in S1 fraction: wild-type gag, pol, rev, conditions of greatest inhibition.

The target in a further assay is T1, Tsg101 (Homo sapiens, UniProt Q99816).
T1 construct: expressed in transfected cells; host or cells: Saccharomyces cerevisiae Y153
Conditions: N- or C-terminally deleted Pr55^Gag fused to GAL4 DNA-binding domain; FIG. 1A.

Setting [1] is: increasing expression, pa 1 and 5 μM, wild-type gag.

Procedure for Tsg101: 2-hybrid assay. […] Vectors pGBT9 and pGAD424 encoding PR55^Gag or Tsg101 sequences as GAL4 activation and binding domain fusion proteins were transformed into Saccharomyces cerevisiae Y153 using procedures previously described (Bartel, P. L. & Fields, S., 1995, Methods Enzymol. 254,241-263). Briefly, interactions were detected using a selection for Trp and Leu prototrophy followed by quantitative assay for LacZ activation. […] Mapping of the interacting domain was performed using vectors encoding the DNA-binding or activation domain of the yeast GAL4 transcriptional activator protein fused to truncations, deletions or point mutations of the proteins. […] Expression of all GAL4 fusions was checked by analysis of yeast cell extracts by SDS-gel electrophoresis and Western blotting with an antibody directed against the GAL4 binding domain (Upstate Biochemical) and GAL4 transactivation domain (Santa Cruz).

B1: pIND-h-Tsg101-FLAG: FLAG-tagged wild-type human Tsg101 overexpressed from an ecdysone-inducible plasmid (protein)
chain: MAVSESQLKKMVSKYKYRDLTVRETVNVITLYKDLKPVLDSYVFNDGSSRELMNLTGTIPVPYRGNTYNIPICLWLLDTYPYNPPICFVKPTSSMTIKTGKHVDANGKIYLPYLHEWKHPQSDLLGLIQVMIVVFGDEPPVFSRPISASYPPYQATGPPNTSYMPGMPGGISPYPSGYPPNPSGYPGCPYPPGGPYPATTSSQYPSQPPVTTVGPSRDGTISEDTIRASLISAVSDKLRWRMKEEMDRAQAELNALKRTEEDLKKGHQKLEEMVTRLDQEVAEVDKNIELLKKKDEELSSALEKMENQSENNDIDEVIIPTAPLYKQILNLYAEENAIEDTIFYLGEALRRGVIDLDVFLKHVRLLSRKQFQLRALMQKARKTAGLSDLY
modifications: left off: small tags and cut ends
notes: FLAG-tagged wild-type human Tsg101 overexpressed from an ecdysone-inducible plasmid
Consider B1, for which, in the assay with HIV-1 particles (1 μM pa), the “amount of mature CA in released virus, of the control (0 μM pa) level” value is roughly 60%. Moreover, the “amount of mature CA in released virus, of the control (0 μM pa) level” value with HIV-1 particles (5 μM pa) was roughly 30%. Also, the “release of immature particles containing GagΔp6” value in the assay with HIV-1 particles (Tsg101 overexpression, pa 0, 1, 5 μM, gagΔp6) was “not significantly affected”. Besides, in the assay on viral protein (Gag), the “Gag Δp6 in S1 and P1 fractions” value was “detected in both S1 and P1 fractions”; the “viral protein in P1 fraction” value is listed as “no detectable viral protein”; the “viral protein in S1 fraction” value is listed as “no detectable viral protein”.

B2: p1-p6: p1-p6 region of HIV-1 Pr55Gag fused to GAL4 DNA-binding domain (protein)
chain: MKLLSSIEQACDICRLKKLKCSKEKPKCAKCLKNNWECRYSPKTKRSPLTRAHLTEVESRLERLEQLFLLIFPREDLDMILKMDSLQDIKALLTGLFVQDNVNKDAVTDRLASVETDMPLTLRQHRISATSSSEESSNKGQRQLTVSGKIWPSYKGRPGNFLQSRPEPTAPPFLQSRPEPTAPPEESFRSGVETTTPPQKQEPIDKELYPLTSLRSLFGNDPSSQ
As for B2, the “LacZ reporter gene activation signal” value in the assay with Tsg101 is reported as “retained”.

B3: SD5-59 (protein)
chain: MAVSESQLKKMVSKYKYRDLTVRETVNVITLYKDLKPVLDSYVFNDGSSRELMNLTGTIPVPYRGNTYNIPICLWLLDTYPYNPPICFVKPTSSMTIKTGKHVDANGKIYLPYLHEWKHPQSDLLGLIQVMIVVFGDEPPVFSRPISASYPPYQATGPPNTSYMPGMPGGISPYPSGYPPNPSGYPGCPYPPGGPYPATTSSQYPSQPPVTTVGPSRDGTISEDTIRASLISAVSDKLRWRMKEEMDRAQAELNALKRTEEDLKKGHQKLEEMVTRLDQEVAEVDKNIELLKKKDEELSSALEKMENQSENNDIDEVIIPTAPLYKQILNLYAEENAIEDTIFYLGEGGVIDLDVFLKHVRLLSRKQFQLRALMQKARKTAGLSDLY
modifications: left off: small tags and cut ends
As for B3, in the assay on HIV-1 particles (setting [1]), the “Gag processing in released particles” value is reported as “accumulation of particle-associated uncleaved Gag precursor” and the “release of virus particles” value is recorded as “permitted release of virus particles”. In addition, in the assay on viral protein (Gag), the “Gag Δp6 in S1 and P1 fractions” value is given as “accumulated at higher levels in both fractions”; the “viral protein in P1 fraction” value was “no protein was found”; the “viral protein in S1 fraction” value was “detectable levels of viral protein”.
